Bridge positions count the residues as written; N and C are the ends. Square brackets hold non-standard residues; d marks the D form. Ends that are not written are not given here. Hyp = O=C(O)[C@@H]1C[C@@H](O)CN1; Cit = NC(=O)NCCC[C@H](N)C(=O)O
T1: hAMY3R (human, UniProt P30988)
T1 sequence 1: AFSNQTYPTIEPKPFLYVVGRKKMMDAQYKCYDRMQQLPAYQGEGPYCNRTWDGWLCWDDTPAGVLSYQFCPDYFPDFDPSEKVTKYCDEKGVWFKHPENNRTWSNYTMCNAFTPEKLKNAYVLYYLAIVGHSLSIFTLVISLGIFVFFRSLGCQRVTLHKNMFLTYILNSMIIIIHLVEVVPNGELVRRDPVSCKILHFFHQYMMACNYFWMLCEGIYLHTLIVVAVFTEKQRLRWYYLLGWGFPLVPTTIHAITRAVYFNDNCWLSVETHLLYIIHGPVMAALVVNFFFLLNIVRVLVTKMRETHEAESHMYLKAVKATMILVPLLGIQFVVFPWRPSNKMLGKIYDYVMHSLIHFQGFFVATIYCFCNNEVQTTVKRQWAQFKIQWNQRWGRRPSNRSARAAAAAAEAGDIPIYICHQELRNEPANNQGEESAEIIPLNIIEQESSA
T1 sequence 2: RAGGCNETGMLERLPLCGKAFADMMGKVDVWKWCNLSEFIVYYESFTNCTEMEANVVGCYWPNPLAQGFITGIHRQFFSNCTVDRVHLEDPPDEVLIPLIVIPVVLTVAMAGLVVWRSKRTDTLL

B1: SEQ ID NO: 28 (peptide)
peptide: KCNTATCTVQRLAHQIYQFTDKDKDNVAPATNVGSNG[Hyp]-NH2
modifications: disulfide 2-7 (inferred); ends not checked
B2: SEQ ID NO: 269 (peptide)
peptide: GCRTGTCTVQ[Cit]LAHQIYQFTDKDKDNVAPRTNVGPNGY-NH2
modifications: disulfide 2-7 (inferred); ends not checked
B3: SEQ ID NO: 272 (peptide)
peptide: KCNTATCTVQ[Cit]LAHQIYQFTDKDKDNVAPRTEVGSNGY-NH2
modifications: disulfide 2-7 (inferred); ends not checked
B4: SEQ ID NO: 268 (peptide)
peptide: KCNTATCTVQ[Cit]LAHQIYQFTDKDKDNVAPPTNVGSNG[Hyp]-NH2
modifications: disulfide 2-7 (inferred); ends not checked
B5: SEQ ID NO: 256 (peptide)
peptide: RCQTSTCTVA[Cit]LAEQIAQYTDKDKDQVAPPTNVGSNS[Hyp]-NH2
modifications: disulfide 2-7 (inferred); ends not checked
B6: SEQ ID NO: 27 (peptide)
peptide: KCNTATCTVQRLAHQIYQFTDKDKDNAAPPTNVGSNG[Hyp]-NH2
modifications: disulfide 2-7 (inferred); ends not checked
B7: SEQ ID NO: 264 (peptide)
peptide: GCRFGTCTVQ[Cit]LAHFLYQFTDKDKDNVAPRTNVGSNTY-NH2
modifications: disulfide 2-7 (inferred); ends not checked
B8: SEQ ID NO: 26 (peptide)
peptide: KCNTATCTVQRLAHQIYQFTDKDKANVAPPTNVGSNG[Hyp]-NH2
modifications: disulfide 2-7 (inferred); ends not checked
B9: SEQ ID NO: 250 (peptide)
peptide: KCNTATCTVQ[Cit]LAHQIYQFTDKDADNVAPPTNVGSNG[Hyp]-NH2
modifications: disulfide 2-7 (inferred); ends not checked
B10: SEQ ID NO: 252 (peptide)
peptide: KCNTATCTVQ[Cit]LAHQIYQFTDKDKDNVAPATNVGSNG[Hyp]-NH2
modifications: disulfide 2-7 (inferred); ends not checked
B11: SEQ ID NO: 273 (peptide)
peptide: GCRTGTCTVQ[Cit]LAHQIYQFTDKDKDNVAPRTNVGPQGY-NH2
modifications: disulfide 2-7 (inferred); ends not checked
B12: SEQ ID NO: 254 (peptide)
peptide: KCNTATCTVQ[Cit]LAHQIYQFTDKDKDNVPPTNVGSNG[Hyp]-NH2
modifications: disulfide 2-7 (inferred); ends not checked
B13: SEQ ID NO: 255 (peptide)
peptide: KCNTATCTVQ[Cit]LAHQIYQFTDKDKDNVAPTNVGSNG[Hyp]-NH2
modifications: disulfide 2-7 (inferred); ends not checked
B14: SEQ ID NO: 265 (peptide)
peptide: KCNTATCTVQ[Cit]LAHQIYQFDKDKDNVAPPTNVGSNG[Hyp]-NH2
modifications: disulfide 2-7 (inferred); ends not checked
B15: SEQ ID NO: 275 (peptide)
peptide: GCRFGTCTVQ[Cit]LAHQIYQFTDKDKDNVAPRTKISPNG[Hyp]-NH2
modifications: disulfide 2-7 (inferred); ends not checked
B16: SEQ ID NO: 262 (peptide)
peptide: KCNTATCTVQ[Cit]LAHQIYQFTDKDKDNVAAPTNVGSNG[Hyp]-NH2
modifications: disulfide 2-7 (inferred); ends not checked
B17: SEQ ID NO: 251 (peptide)
peptide: KCNTATCTVQ[Cit]LAHQIYQFTDKDKDNAAPPTNVGSNG[Hyp]-NH2
modifications: disulfide 2-7 (inferred); ends not checked
B18: SEQ ID NO: 270 (peptide)
peptide: GCRFGTCTVQ[Cit]LAHQIYQFTDKDKDNVAPRTNVGPNG[Hyp]-NH2
modifications: disulfide 2-7 (inferred); ends not checked
B19: SEQ ID NO: 271 (peptide)
peptide: GCRFGTCTVQ[Cit]LAHQIYQFTDKDKDNVAPRTNVSPNGY-NH2
modifications: disulfide 2-7 (inferred); ends not checked
B20: SEQ ID NO: 259 (peptide)
peptide: GCRFGTCTVQ[Cit]LAHQIYQFTDKDKDNVAPRTKVGPQG[Hyp]-NH2
modifications: disulfide 2-7 (inferred); ends not checked
B21: SEQ ID NO: 266 (peptide)
peptide: KCNTATCTVQ[Cit]LAEQIYQFTDKDKDNVSPPTNVGSNG[Hyp]-NH2
modifications: disulfide 2-7 (inferred); ends not checked
B22: SEQ ID NO: 3 (peptide)
peptide: KCNFATCTVQRLAHQIYQFTDKDKDNVAPRTKVGSNG[Hyp]-NH2
modifications: disulfide 2-7 (inferred); ends not checked
B23: SEQ ID NO: 260 (peptide)
peptide: GCRFGTCTVQ[Cit]LAHQIYQFTDKDKDNVAPRTNIGPQG[Hyp]-NH2
modifications: disulfide 2-7 (inferred); ends not checked
B24: SEQ ID NO: 258 (peptide)
peptide: KCNTATCTVQ[Cit]LAHQIYQFTDKAKDNVAPPTNVGSNG[Hyp]-NH2
modifications: disulfide 2-7 (inferred); ends not checked
B25: SEQ ID NO: 257 (peptide)
peptide: KCNTATCTVQ[Cit]LAHQIYQFTDKDKDNVAPRTKVGSNGY-NH2
modifications: disulfide 2-7 (inferred); ends not checked
B26: SEQ ID NO: 248 (peptide)
peptide: KCNTATCTVQ[Cit]LAHQIYQFTDKDKDNVAPRTKVGSNG[Hyp]-NH2
modifications: disulfide 2-7 (inferred); ends not checked
B27: SEQ ID NO: 261 (peptide)
peptide: GCRTGTCTVQ[Cit]LAHQIYQFTDKDKDNVAPRTNVGPQG[Hyp]-NH2
modifications: disulfide 2-7 (inferred); ends not checked
B28: SEQ ID NO: 274 (peptide)
peptide: GCRFGTCTVQ[Cit]LAHQIYQFTDKDKDNVAPRTKIGPQG[Hyp]-NH2
modifications: disulfide 2-7 (inferred); ends not checked
B29: SEQ ID NO: 249 (peptide)
peptide: KCNTATCTVQ[Cit]LAHQIYQFADKDKDNVAPPTNVGSNG[Hyp]-NH2
modifications: disulfide 2-7 (inferred); ends not checked
B30: SEQ ID NO: 263 (peptide)
peptide: GCRFGTCTVQ[Cit]LAHFLYQFTDKDKDNVAPRTNVGPQGY-NH2
modifications: disulfide 2-7 (inferred); ends not checked
B31: SEQ ID NO: 267 (peptide)
peptide: GCRFGTCTVQ[Cit]LAHQIYQFTDKDKDNVAPRTNVGPQG[Hyp]-NH2
modifications: disulfide 2-7 (inferred); ends not checked
B32: SEQ ID NO: 253 (peptide)
peptide: KCNTATCTVQ[Cit]LAHQIYQFTKDKDNVAPPTNVGSNG[Hyp]-NH2
modifications: disulfide 2-7 (inferred); ends not checked

target: hAM1R (human, UniProt Q16602); assay: cell-based or functional assay

Row | hAM1R EC50 (cAMP) | Binder
1 | > 5000 nM | B1
2 | > 5000 nM | B2
3 | > 5000 nM | B3
4 | > 5000 nM | B4
5 | > 5000 nM | B5
6 | > 5000 nM | B6
7 | 3470 nM | B7
8 | > 5000 nM | B8
9 | > 5000 nM | B9
10 | > 5000 nM | B10
11 | > 5000 nM | B11
12 | > 5000 nM | B12
13 | > 5000 nM | B13
14 | > 5000 nM | B14
15 | > 5000 nM | B15
16 | > 5000 nM | B16

Row | hAM1R EC50 (cAMP) | Binder
17 | > 5000 nM | B17
18 | 1880 nM | B18
19 | 96.6 nM | B19
20 | 4320 nM | B20
21 | > 5000 nM | B21
22 | 124 nM | B22
23 | 4160 nM | B23
24 | > 5000 nM | B24
25 | 2040 nM | B25
26 | 3590 nM | B26
27 | > 5000 nM | B27
28 | 877 nM | B28
29 | > 5000 nM | B29
30 | 1280 nM | B30
31 | 2490 nM | B31
32 | > 5000 nM | B32

target: T1, hAMY3R; assay: cell-based or functional assay

Row | hAMY3R EC50 (cAMP) | Binder
33 | 0.008 nM | B1
34 | 0.005 nM | B2
35 | 0.009 nM | B3
36 | 0.014 nM | B4
37 | 0.007 nM | B5
38 | 0.008 nM | B6
39 | 0.006 nM | B7
40 | 0.008 nM | B8
41 | 0.011 nM | B9
42 | 0.006 nM | B10
43 | 0.021 nM | B11
44 | 0.006 nM | B12
45 | 0.007 nM | B13
46 | 0.03 nM | B14
47 | 0.02 nM | B15
48 | 0.014 nM | B16

Row | hAMY3R EC50 (cAMP) | Binder
49 | 0.006 nM | B17
50 | 0.003 nM | B18
51 | 0.01 nM | B19
52 | 0.013 nM | B20
53 | 0.053 nM | B21
54 | 0.006 nM | B22
55 | 0.011 nM | B23
56 | 0.01 nM | B24
57 | 0.016 nM | B25
58 | 0.027 nM | B26
59 | 0.018 nM | B27
60 | 0.019 nM | B28
61 | 0.006 nM | B29
62 | 0.005 nM | B30
63 | 0.007 nM | B31
64 | 0.004 nM | B32
